The target in test [1] is T1, recombinant human PD-1 protein (NCBI accession No.: NP_005009.2, 21aa-167aa) (human, UniProt Q15116 21-167).
T1 construct: range 21-167; also called recombinant human PD-1 extracellular domain protein; PD-1-ECD
The experiment in a line: BLI Octet QKe, antibody on the sensor, single 100 nM PD-1. Here is the method: Determination of the binding kinetics: the affinity of the antibody was determined with Octet QKe system from Fortebio using an assay of capturing biotin-labeled antibody with streptavidin. […] Both the binding and dissociating were conducted for 300 s.
The comparison of affinity between the variant antibodies and the parent antibody was performed using Octet QKe system supplied by Fortebio.
On the technique in general: In BLI a coated tip is dipped into the sample, and binding shifts an interference pattern.

The target of test [2] is T2, rat PD-1 (Cat: 80448-R08H, Sino Biological Inc.) (rat, UniProt D3ZIN8 25-169).
T2 construct: Bought recombinant protein; also called recombinant rat PD-1; not shown: The vendor's tag
T2 sequence: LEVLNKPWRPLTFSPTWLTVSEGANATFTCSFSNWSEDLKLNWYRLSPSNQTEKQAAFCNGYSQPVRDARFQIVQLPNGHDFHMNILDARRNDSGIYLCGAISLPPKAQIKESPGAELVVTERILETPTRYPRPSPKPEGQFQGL
Kind of test: ELISA, plate coated with the PD-1 protein at 1 µg/mL, hybridoma supernatant diluted 100 times. The procedure: (§1) A plate was coated with recombinant human PD-1/His protein (NCBI accession No.: NP_005009.2, 21aa-167aa, Lot: 2016.2.22), cynomolgus monkey PD-1 (Cat: 90311-C08H, Sino Biological Inc.), rat PD-1 (Cat: 80448-R08H, Sino Biological Inc.) and mouse PD-1 (Cat: 50124-M08H, Sino Biological Inc.) in a concentration of 1 μg/mL overnight at 4° C., washed three times with PBS subsequently, and 5% BSA-PBS was added for blocking for 60 min at 37° C. The plate was washed three times with PBST afterwards, and supernatants of the hybridiomas diluted 100 times were added and incubated for 60 min at 37° C. Again, the plate was washed four times with PBST, HRP-Goat anti-mouse IgG (Fcγ) (Cat: 115-035-071, Jackson Immuno Research) with a dilution of 1:5000 was added for a 30 min incubation at 37° C. Once again, the plate was washed four times with PBST, and TMB substrate was added for developing color through incubating for 10 min at 37° C., then the reaction was terminated by adding 2 M HCl. With 630 nm as reference wavelength, the absorbance at 450 nm (A450 nm-630 nm) of each well in the plate was read and recorded.
For orientation: ELISA stands for enzyme-linked immunosorbent assay.

Test [3] addresses T3, mouse PD-1 (Cat: 50124-M08H, Sino Biological Inc.) (mouse, UniProt Q02242 25-167).
T3 construct: Bought recombinant protein; also called recombinant mouse PD-1
T3 sequence (looked up): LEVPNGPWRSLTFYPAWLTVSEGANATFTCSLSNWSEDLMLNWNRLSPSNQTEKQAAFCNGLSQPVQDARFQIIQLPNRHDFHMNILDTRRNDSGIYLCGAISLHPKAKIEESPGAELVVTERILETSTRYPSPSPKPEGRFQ
The test is described as above. The procedure: as §1

Test [4] has as its target T4, cynomolgus monkey PD-1 (Cat: 90311-C08H, Sino Biological Inc.) (cynomolgus monkey, UniProt B0LAJ3 25-170).
T4 construct: Bought recombinant protein; not shown: The vendor's tag
Described as above. The procedure:
as §1

For test [5], the target named is T5, recombinant human PD-1/His protein (NCBI accession No.: NP_005009.2, 21aa-167aa, Lot: 2016.2.22) (human, UniProt Q15116 21-167).
T5 construct: range 21-167; also called recombinant human PD-1 extracellular domain protein; not shown: His tag
Kind of test: BLI (Fortebio BLITZ), antibody captured on AHC sensor, PD-1-His in solution. Here is the method: The light chain variable region gene and heavy chain variable region gene of the monoclonal antibody obtained through cloning, with cleavage sites of restriction enzymes introduced by PCR using the following primers (Table 3), were respectively cloned into the upstream of gene encoding human-kappa light chain constant region and the upstream of gene encoding the human IgG4 heavy chain constant region carried in eukaryotic expression vectors. […] The affinity of the antibody was determined by the anti-human antibody capture assay with Fortebio (BLITZ pro1.1.0.28). For the determination, anti-Human IgG Fc Capture (AHC) biosensors were soaked in PBS for 10 min. […] Subsequently, the AHC biosensors were reacted with the diluted recombinant human PD-1-His protein (NCBI accession No.: NP_005009.2, 21aa-167aa, Lot: 2016.2.22) of different concentrations (1 μM, 0.6 μM and 0 nM) for binding for 45 s, and was then transferred into PBS for dissociating for 120 s.

T5 sequence (Q15116 21-167 limits assumed, form in doubt): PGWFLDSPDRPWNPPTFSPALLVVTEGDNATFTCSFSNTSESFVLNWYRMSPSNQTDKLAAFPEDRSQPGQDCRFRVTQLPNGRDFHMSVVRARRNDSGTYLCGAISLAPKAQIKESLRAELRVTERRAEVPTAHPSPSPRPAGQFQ
T1 sequence (Q15116 21-167 limits assumed, form in doubt): as above
T4 sequence (B0LAJ3 entry or part of it C08H C08H limits assumed): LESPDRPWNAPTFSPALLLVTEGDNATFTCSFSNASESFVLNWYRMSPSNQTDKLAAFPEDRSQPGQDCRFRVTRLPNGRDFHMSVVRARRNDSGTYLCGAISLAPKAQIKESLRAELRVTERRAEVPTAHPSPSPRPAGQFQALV

B1: h317 variant antibody, light chain W50G (antibody, V domains shown)
VH: EVQLVESGGGLVKPGGSLRLSCAASGFTFSSYDMSWVRQAPGKGLEWVATISGGGSYTYYPDSVKGRFTISRDNAKNSLYLQMNSLRAEDTAVYYCASPDSSGVAYWGQGTLVTVSS
VL: DIVMTQSPLSLPVTPGEPASITCKASQDVETVVAWYLQKPGQSPRLLIYGASTRHTGVPDRFSGSGSGTDFTLKISRVEAEDVGVYYCQQYSRYPWTFGQGTKL
notes: Variant of h317
The Kd is the concentration at which binding is half-saturated. With B1, the Kd in test [1] was found to be 61.4 nM.

B2: h317 variant antibody, light chain Y91A (antibody, V domains shown)
VH: EVQLVESGGGLVKPGGSLRLSCAASGFTFSSYDMSWVRQAPGKGLEWVATISGGGSYTYYPDSVKGRFTISRDNAKNSLYLQMNSLRAEDTAVYYCASPDSSGVAYWGQGTLVTVSS
VL: DIVMTQSPLSLPVTPGEPASITCKASQDVETVVAWYLQKPGQSPRLLIYWASTRHTGVPDRFSGSGSGTDFTLKISRVEAEDVGVYYCQQASRYPWTFGQGTKL
notes: Variant of h317
B2: the Kd in test [1] is 51.2 nM.

B3: h317 variant antibody, light chain W96Y (antibody, V domains shown)
VH: EVQLVESGGGLVKPGGSLRLSCAASGFTFSSYDMSWVRQAPGKGLEWVATISGGGSYTYYPDSVKGRFTISRDNAKNSLYLQMNSLRAEDTAVYYCASPDSSGVAYWGQGTLVTVSS
VL: DIVMTQSPLSLPVTPGEPASITCKASQDVETVVAWYLQKPGQSPRLLIYWASTRHTGVPDRFSGSGSGTDFTLKISRVEAEDVGVYYCQQYSRYPYTFGQGTKL
notes: Variant of h317
Turning to B3, the Kd in test [1] was found to be 412 nM.

B4: h317 variant antibody, light chain Y94F (antibody, V domains shown)
VH: EVQLVESGGGLVKPGGSLRLSCAASGFTFSSYDMSWVRQAPGKGLEWVATISGGGSYTYYPDSVKGRFTISRDNAKNSLYLQMNSLRAEDTAVYYCASPDSSGVAYWGQGTLVTVSS
VL: DIVMTQSPLSLPVTPGEPASITCKASQDVETVVAWYLQKPGQSPRLLIYWASTRHTGVPDRFSGSGSGTDFTLKISRVEAEDVGVYYCQQYSRFPWTFGQGTKL
notes: Variant of h317
In the case of B4, in test [1], the Kd came out at 6.81 nM.

B5: h317 variant antibody, light chain Y91F (antibody, V domains shown)
VH: EVQLVESGGGLVKPGGSLRLSCAASGFTFSSYDMSWVRQAPGKGLEWVATISGGGSYTYYPDSVKGRFTISRDNAKNSLYLQMNSLRAEDTAVYYCASPDSSGVAYWGQGTLVTVSS
VL: DIVMTQSPLSLPVTPGEPASITCKASQDVETVVAWYLQKPGQSPRLLIYWASTRHTGVPDRFSGSGSGTDFTLKISRVEAEDVGVYYCQQFSRYPWTFGQGTKL
notes: Variant of h317
As for B5, the Kd in test [1] was 47.6 nM.

B6: h317 variant antibody, light chain W96G (antibody, V domains shown)
VH: EVQLVESGGGLVKPGGSLRLSCAASGFTFSSYDMSWVRQAPGKGLEWVATISGGGSYTYYPDSVKGRFTISRDNAKNSLYLQMNSLRAEDTAVYYCASPDSSGVAYWGQGTLVTVSS
VL: DIVMTQSPLSLPVTPGEPASITCKASQDVETVVAWYLQKPGQSPRLLIYWASTRHTGVPDRFSGSGSGTDFTLKISRVEAEDVGVYYCQQYSRYPGTFGQGTKL
notes: Variant of h317
Consider B6, for which, in test [1], the Kd worked out at 15.3 nM.

B7: Clone 317 (murine antibody 317, hybridoma supernatant) (antibody, mouse IgG1, V domains shown)
VH: EVKLVESGGGLMKPGGSLKLSCAASGFTFSSYDMSWVRQTPEKRLEWVATISGGGSYTYYPDSVKGRFTISRDNAKNNLYLQMSSLRSEDTALYYCASPDSSGVAYWGQGTLVTVSA
VL: DIVMTQSHKFMSTSVGDRVSITCKASQDVETVVAWYQQKPGQSPKLLIYWASTRHTGVPDRFTGSGSGTDFTLTISNVQSEDLADYFCQQYSRYPWTFGGGTKL
notes: tested as hybridoma supernatant
As for B7, the binding result in test [2] is “no binding (tested: single dilution, no concentration shown)”; in test [3], “no binding (tested: single dilution, no concentration shown)”; in test [4] it was “binds”.

B8: chimeric antibody 317 (antibody, V domains shown)
VH: EVKLVESGGGLMKPGGSLKLSCAASGFTFSSYDMSWVRQTPEKRLEWVATISGGGSYTYYPDSVKGRFTISRDNAKNNLYLQMSSLRSEDTALYYCASPDSSGVAYWGQGTLVTVSA
VL: DIVMTQSHKFMSTSVGDRVSITCKASQDVETVVAWYQQKPGQSPKLLIYWASTRHTGVPDRFTGSGSGTDFTLTISNVQSEDLADYFCQQYSRYPWTFGGGTKL
By koff is commonly meant the first-order rate constant of dissociation. Broadly, the kon is a measure of how fast the partners come together. As to B8, in test [5], the Kd came out at 2.64 nM, the koff worked out at 0.000566 s⁻¹ and the kon was 215000 M⁻¹ s⁻¹.

The record behind these values is patent publication US20230104769A1 (MABWELL SHANGHAI BIOSCIENCE, published 2023).
